# From patent US20250051437A1 (University of California, published 2025)
# B1: humanized anti-CDH17 antibody 07-0653-h43 (antibody, human IgG1, V domains shown)
# VH: QVQLVQSGAEVKKPGASVKVSCKASGYTFTDYYMNWVRQAPGQGLEWMGVIYPYSGGIGYAQKFQGRVTMTVDKSTSTAYMELSSLRSEDTAVYYCARGRGDYFGLFDFWGQGTTVTVSS
# VL: DIQLTQSPSSLSASVGDRVTITCRATSSLSYIHWYQQKPGKAPKPLIYEISKLASGVPSRFSGSGSGTDYTLTISSLQPEDFATYYCQQWNYPFTFGQGTKLEIK
# notes: also called CDH17-653-h43
# Key:
# [1] = target: T1, human cadherin-17 (CDH17), endogenously expressed on human cancer cell lines (LS513, SNU-C1, PaTu8988s, … (human, UniProt Q12864 23-832)); experiment: KinExA, cell-based, SNUC1 cells
# T1 construct: also called LS513 (Colon, CDH17+); HPAF2
# [2] = target: T2, human CDH17-mGFP fusion protein overexpressed on HEK293T cells (clone G11) (human, UniProt Q12864 23-832); experiment: KinExA, cell-based, HEK293T CDH17mGFP clone G11
# T2 construct: also called HEK293T CDH17mGFP Clone G11; HEK293T Human CDH17mGFP G11; not shown: mGFP fluorescent protein fused to CDH17
# Protocol: (§1) The cell-based antibody affinity (KD) of the anti-CDH17 antibodies was measured by KinExA 4000 (Sapidyne Instrument, Boise, Idaho). Briefly, HEK293T overexpressing CDH17-fluorescent protein fusion (i.e., human CDH17-mGFP, monkey CDH17-mGFP, mouse CDH17-mGFP or rat CDH17-mGFP) were detached with Versene and equilibrated with either 50 pM, 200 pM, 20 nM, or 50 nM antibody in 2% FBS/DMEM at 4° C. overnight. The cell concentration started at 5×10⁶ cells/mL or 1×10⁷ cells/mL and 2-fold serial dilutions were performed up to 10 points. The next day, the cells were centrifuged at 1500 rpm for 10 min and the supernatants were saved. […] In contrast, while the humanized anti-CDH17 antibody, 07-0653-h43, fails to bind mouse CDH17 protein, it binds rat CDH17 protein equally well as to human and monkey CDH17 protein such that its Kp is less than about 1 nM for human, monkey and rat CDH17 proteins with overlapping 95% confidence interval values.
# [3] = target: T3, rat CDH17 fused to moxGFP, overexpressed on HEK293T cells (rat, UniProt P55281 22-827); experiment: flow cytometry on HEK293T rat CDH17mGFP mass population, 20 µg/ml
# T3 construct: whole, on cells; also called HEK293T Rat CDH17mGFP mass pop; rat CDH17-moxGFP
# [4] = target: T1, human cadherin-17 (CDH17), endogenously …; experiment: flow cytometry (iQue) on LS513 cells, 0.2 µg Ab
# [5] = target: T4, recombinant CDH17 extracellular domain (ECD) with 6x His tag (human, UniProt Q12864 23-787); experiment: ELISA on recombinant CDH17 ECD-6xHis
# T4 construct: also called Recombinant CDH17 ECD-6xhis tag
# [6] = target: T2, human CDH17-mGFP fusion protein …; experiment: KinExA, cell-based, HEK293T overexpressing human CDH17-mGFP (FIG. 16)
# Protocol: as §1
# [7] = target: T1, human cadherin-17 (CDH17), endogenously …; experiment: flow cytometry (iQue) on SNUC1 cells, 0.2 µg Ab
# [8] = target: T3, rat CDH17 fused to moxGFP, …; experiment: KinExA, cell-based, HEK293T rat CDH17mGFP mass population
# Protocol: as §1
# [9] = target: T1, human cadherin-17 (CDH17), endogenously …; experiment: flow cytometry (iQue) on SNUC1 cells, 1 µg Ab
# [10] = target: T5, mouse CDH17-mGFP fusion protein overexpressed on HEK293T cells (mouse, UniProt Q9R100 26-827); experiment: flow cytometry on HEK293T mouse CDH17mGFP mass population, 20 µg/ml
# T5 construct: also called HEK293T Mouse CDH17mGFP mass; not shown: mGFP fluorescent protein
# [11] = target: T3, rat CDH17 fused to moxGFP, …; experiment: KinExA, cell-based, HEK293T overexpressing rat CDH17 fusion (FIG. 16)
# Protocol: as §1
# [12] = target: T1, human cadherin-17 (CDH17), endogenously …; experiment: flow cytometry on LS513 cells (CDH17+), 20 µg/ml
# [13] = target: T1, human cadherin-17 (CDH17), endogenously …; experiment: flow cytometry (iQue) on PATU8988S cells, 1 µg Ab
# [14] = target: T1, human cadherin-17 (CDH17), endogenously …; experiment: flow cytometry (iQue) on PATU8988S cells, 0.2 µg Ab
# [15] = target: T1, human cadherin-17 (CDH17), endogenously …; experiment: flow cytometry (iQue) on LS513 cells, 1 µg Ab
# [16] = target: T2, human CDH17-mGFP fusion protein …; experiment: flow cytometry (iQue) on HEK293T CDH17 mGFP clone G11 (human), 1 µg Ab
# [17] = target: T2, human CDH17-mGFP fusion protein …; experiment: flow cytometry on HEK293T human CDH17mGFP G11, 20 µg/ml
# [18] = target: T2, human CDH17-mGFP fusion protein …; experiment: KinExA, cell-based, HEK293T human CDH17mGFP G11 (same value as r12)
# Protocol: as §1
# [19] = target: T2, human CDH17-mGFP fusion protein …; experiment: flow cytometry (iQue) on HEK293T CDH17 mGFP clone G11 (human), 0.2 µg Ab
# T3 sequence (P55281 22-827): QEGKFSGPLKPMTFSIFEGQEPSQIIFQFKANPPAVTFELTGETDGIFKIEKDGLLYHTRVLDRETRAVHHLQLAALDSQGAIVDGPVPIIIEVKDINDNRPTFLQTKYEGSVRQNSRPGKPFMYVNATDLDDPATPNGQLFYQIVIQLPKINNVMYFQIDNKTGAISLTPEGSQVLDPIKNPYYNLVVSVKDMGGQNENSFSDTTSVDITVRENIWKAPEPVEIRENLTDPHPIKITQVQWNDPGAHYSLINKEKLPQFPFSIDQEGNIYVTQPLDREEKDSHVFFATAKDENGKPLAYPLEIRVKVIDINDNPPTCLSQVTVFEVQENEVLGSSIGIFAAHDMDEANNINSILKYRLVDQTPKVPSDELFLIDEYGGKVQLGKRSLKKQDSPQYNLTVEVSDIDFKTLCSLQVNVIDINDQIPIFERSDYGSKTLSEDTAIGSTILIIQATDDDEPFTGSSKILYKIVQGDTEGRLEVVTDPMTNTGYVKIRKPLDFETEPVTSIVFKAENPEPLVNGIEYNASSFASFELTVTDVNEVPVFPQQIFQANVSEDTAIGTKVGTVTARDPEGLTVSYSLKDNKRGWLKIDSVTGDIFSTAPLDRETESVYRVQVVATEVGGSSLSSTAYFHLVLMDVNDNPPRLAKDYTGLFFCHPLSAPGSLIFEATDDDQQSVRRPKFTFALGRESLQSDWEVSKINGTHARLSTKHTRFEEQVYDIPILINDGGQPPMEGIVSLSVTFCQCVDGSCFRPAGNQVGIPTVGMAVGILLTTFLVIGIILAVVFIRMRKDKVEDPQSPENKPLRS
# T5 sequence (Q9R100 26-827): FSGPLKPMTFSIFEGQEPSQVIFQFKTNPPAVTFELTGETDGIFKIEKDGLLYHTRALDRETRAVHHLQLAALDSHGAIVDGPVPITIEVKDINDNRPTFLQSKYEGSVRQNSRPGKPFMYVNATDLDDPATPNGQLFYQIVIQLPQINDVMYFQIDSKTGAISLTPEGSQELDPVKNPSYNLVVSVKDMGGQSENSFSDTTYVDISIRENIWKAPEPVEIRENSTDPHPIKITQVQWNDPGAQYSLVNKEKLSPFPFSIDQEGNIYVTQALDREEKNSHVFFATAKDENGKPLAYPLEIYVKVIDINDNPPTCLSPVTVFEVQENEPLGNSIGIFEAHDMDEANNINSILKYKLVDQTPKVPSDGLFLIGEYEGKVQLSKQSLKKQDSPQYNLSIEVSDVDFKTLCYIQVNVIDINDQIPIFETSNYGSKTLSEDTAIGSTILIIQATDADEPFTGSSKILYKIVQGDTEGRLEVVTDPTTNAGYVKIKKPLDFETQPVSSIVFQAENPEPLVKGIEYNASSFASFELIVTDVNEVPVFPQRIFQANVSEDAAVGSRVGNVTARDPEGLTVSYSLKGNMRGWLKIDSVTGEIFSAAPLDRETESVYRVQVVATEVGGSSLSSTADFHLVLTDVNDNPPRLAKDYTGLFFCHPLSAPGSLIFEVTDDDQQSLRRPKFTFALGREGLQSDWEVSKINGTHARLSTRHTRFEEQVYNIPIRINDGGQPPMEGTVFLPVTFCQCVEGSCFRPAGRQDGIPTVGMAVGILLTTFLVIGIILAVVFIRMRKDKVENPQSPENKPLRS
binder,measurement,setting,value
B1,Kd,[1],0.206 nM
same,Kd,[2],0.736 nM
same,Cross Reactivity by Flow,[3],71800
same,Antibody Binding Activity by Flow iQue,[4],1.79e+06
same,EC50,[5],1.13 nM
same,Kd,[6],< 1 nM
same,Antibody Binding Activity by Flow iQue,[7],77200
same,Kd,[8],0.535 nM
same,Antibody Binding Activity by Flow iQue,[9],61400
same,Cross Reactivity by Flow,[10],2460
same,Kd,[11],< 1 nM
same,Antibody Binding Activity by Flow Cytometry,[12],24300
same,Antibody Binding Activity by Flow iQue,[13],52200
same,Antibody Binding Activity by Flow iQue,[14],48100
same,Antibody Binding Activity by Flow iQue,[15],1.83e+06
same,Antibody Binding Activity by Flow iQue,[16],191000
same,Cross Reactivity by Flow,[17],51800
same,Kd,[18],0.736 nM
same,Antibody Binding Activity by Flow iQue,[19],51800
